{
  "source": "patent US7141434B2",
  "about": "“Methods of identifying compounds that modulate IL-4 receptor-mediated IgE synthesis utilizing an adenosine kinase” (Rigel Pharmaceuticals, Inc., priority 2002, dated 2006)",
  "key": {"human AK (hAK)": {"target": "T1, human AK (hAK) (Homo sapiens, UniProt P55263)", "T1 construct": "expressed in transfected cells; prey cDNA from the A5T4 reporter cell line (derived from BJAB B-cells)", "T1 sequence (P55263 whole entry)": "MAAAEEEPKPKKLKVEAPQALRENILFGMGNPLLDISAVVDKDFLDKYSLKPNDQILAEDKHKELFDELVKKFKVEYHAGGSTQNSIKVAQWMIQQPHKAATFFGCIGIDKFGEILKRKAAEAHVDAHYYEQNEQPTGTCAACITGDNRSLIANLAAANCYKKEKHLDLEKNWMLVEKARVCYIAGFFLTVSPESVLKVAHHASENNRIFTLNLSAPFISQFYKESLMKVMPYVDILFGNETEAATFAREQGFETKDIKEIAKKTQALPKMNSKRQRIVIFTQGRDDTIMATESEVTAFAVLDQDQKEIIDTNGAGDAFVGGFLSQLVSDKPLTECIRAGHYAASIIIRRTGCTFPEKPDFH", "test": "β-galactosidase yeast two hybrid (YTH) interaction assay", "assay_type": "binding", "conditions": "qualitative", "procedure": "Potential binding partners for peptide AR02E8 wt were identified in a β-galactosidase yeast two-hybrid (YTH) assay using peptide AR02E8 wt as bait and a cDNA library constructed from the A5T4 reporter cell line as prey. Binding was assessed by β-galactosidase quantification using BetaFluor (Novagen) as a substrate. A negative interaction control (no cDNA fused downstream of the GAL4 activation domain sequence) was also run. A general outline of the YTH assay is illustrated in FIG. 5A. Following clustering, filtering to remove non-specific bait hits (e.g., GFP and BFP), singletons and clusters recognized by 10 or more cDNA baits (based upon historical YTH assays), and prioritization, 45 prey clones were identified as hits.\nPotential targets identified in the YTH assay were reconfirmed as generally outlined in FIG. 6. The cDNA clones identified as hits in the YTH assay were purified and rescreened for interaction with the AR02E8 wt peptide in a YTH assay. The hit clones were also screened in a control assay for interaction with the BFP using a vector (pGBKT7) that contained only the BFP and not the AR02E8 peptide. At this stage, 27 putative target clones remained.\nThe interaction of AR02E8 wt peptide and its mutants with the clones identified as potential targets for the peptide AR02E8 wt was then quantified in a β-galactosidase YTH assay. The YTH assay was performed in the manner described above. A general outline of this YTH assay is illustrated in FIG. 5B. For each clone tested, an interaction profile was developed by comparing the β-galactosidase activity of each mutant to that of the wild type peptide as described above.\nThe interaction of these IOF, ROF and LOF mutants with different polypeptides encoded by the putative target clones were quantified using the YTH assay described above. […]"}, "[1]": {"test_system": "IL-4 induced germline ε transcription (ε promoter reporter in A5T4 cells)", "test": "Re-infection of naive A5T4 reporter cells with BFP-peptide fusion (GFP reporter ratio)", "assay_type": "cell-based, human", "conditions": "based on reporter ratio; % change calculated after subtracting 1.0 from the ratios", "procedure": "The ability of peptide AR02E8 wt to inhibit germline ε transcription was confirmed in naive cells. Briefly, Phoenix cells were transfected with a retroviral vector encoding a BFP-AR02E8 wt peptide fusion as described in WO 99/58663 and WO 97/27213. Naïve A5T4 cells were infected with the resultant virions and grown for 3 days. The infected cells were stimulated with IL-4 (60 U/mL) and, after 3 days, the cells were assessed by FACS for BFP and GFP. […] The BFP fluorescence data corresponding to the BFP^+ and BFP^− populations are provided in Panel A. The GFP fluorescence data corresponding to the BFP^+ and BFP-populations are presented in Panel B. The reporter ratio for this purpose is determined as the geometric mean of the GFP fluorescence of the BFP^− population divided by the geometric mean of the GFP fluorescence of the BFP^+ population. The reporter ratio for the AR02E8 in this re-infection assay was 2.93. […]\nTABLE 2 depicts the amino acid sequences (the dual alanine/glycine mutations are underlined) of the mutants tested and the measured reporter ratios when screening in the A5T4 reporter line."}, "[2]": {"test_system": "ST486 endogenous α promoter", "test": "TAQMAN assay of endogenous germline α promoter transcription in ST486 cells", "assay_type": "cell-based", "conditions": "ST486 cells stimulated with TGF-β 40 ng/ml; average of 3 values; p=0.1120", "procedure": "The assay was similar to that described in the immediately preceding section, except that ST486 cells (ATCC # CRL-1647) engineered to express the tetracycline-regulated transactivator were infected and the infected cells were stimulated with TGF-β (40 ng/ml; Peprotech). The primers and probe, which are specific for the transcription product driven by the ST486 endogenous α promoter, were as follows (the probe was labeled at the 5′-end with Fam and at the 3′-end with Tamra): […]"}},
  "data": [
    {"sequence": "DTMQVQCGAGRSGYVVAFWDVGP (peptide encoded by synthetic oligomer) [AR02E8VC, dual alanine/glycine mutant of AR02E8 wt]", "values": [
      {"measurement": "binding to human AK in yeast two hybrid interaction assay", "setting": "human AK (hAK)", "value": "found to bind human AK (hAK)"}
    ]},
    {"sequence": "DTMQVQCGVCAGGYVVAFWDVGP (peptide encoded by synthetic oligomer) [AR02E8RS, dual alanine/glycine mutant of AR02E8 wt]", "values": [
      {"measurement": "binding to human AK in yeast two hybrid interaction assay", "setting": "human AK (hAK)", "value": "found to bind human AK (hAK)"}
    ]},
    {"sequence": "DTMQVQCGVCRSGAGVAFWDVGP (peptide encoded by synthetic oligomer) [AR02E8YV, dual alanine/glycine mutant of AR02E8 wt, loss of function]", "values": [
      {"measurement": "functional category as compared to the wild type peptide", "setting": "[1]", "value": "LOF (Cells expressing a loss of function (LOF) mutant have a reporter ratio of <1.11)"}
    ]},
    {"sequence": "DTMQVQCGVCRSGYVVAFWDVGP (peptide encoded by synthetic oligomer) [AR02E8 wt, 23-residue peptide from a random retroviral library, expressed as BFP-peptide fusion]", "values": [
      {"measurement": "endogenous α inhibition ratio", "setting": "[2]", "value": 0.79},
      {"measurement": "binding to human AK in yeast two hybrid interaction assay", "setting": "human AK (hAK)", "value": "found to bind human AK (hAK)"}
    ]}
  ]
}
